One series addresses EGF receptor (Homo sapiens, UniProt P00533). The settings on record: 50 mM EDTA, ~12.5 nM EGF receptor, 30° C., polarization read every 10 seconds.
In series [1] the target is T1, T-cell protein tyrosine phosphatase (Homo sapiens, UniProt P17706).
T1 construct: purchased New England Biolabs
T1 sequence (P17706 1-317 limits assumed): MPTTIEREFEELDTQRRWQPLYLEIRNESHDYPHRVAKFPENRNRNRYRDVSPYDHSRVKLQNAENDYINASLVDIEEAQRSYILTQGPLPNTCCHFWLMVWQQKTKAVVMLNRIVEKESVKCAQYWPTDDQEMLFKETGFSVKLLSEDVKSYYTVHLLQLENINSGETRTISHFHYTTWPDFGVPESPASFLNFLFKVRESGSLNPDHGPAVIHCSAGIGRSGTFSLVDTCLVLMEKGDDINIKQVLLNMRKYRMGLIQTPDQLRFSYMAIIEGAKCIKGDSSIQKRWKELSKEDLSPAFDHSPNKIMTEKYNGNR
The experiment in a line: Phosphatase activity by fluorescence polarization. The settings on record: 1.0 mM Na3VO4, 0.5 U T-cell protein tyrosine phosphatase, 30° C. It is filed as biochemical. As to the method: Fluorescence polarization can also be used to measure phosphatase activity.
Phosphatase enzyme was added to a high polarization mixture and as it removed the phosphate from the peptide, the antibody was released, and the polarization value went down, shown in FIG. 13. Two control experiments were performed. […] This assay was performed with all of the reaction and detection components present in a test tube. However, this reaction could also be done as an endpoint assay with aliquots of the reaction taken at incremental time points, or with different reactions started at the same time but terminated at incremental time points.

For another series, the system named is GFAP peptide. The experiment in a line: Radioactive (32P) kinase assay of PKC isozymes on GFAP peptide. In kind it is biochemical. The settings on record: GFAP peptide 100 μg/ml, 10 μM ATP, 100 μM CaCl2, no EGTA.
In series [2] the target is T2, PKC Epsilon (ε) substrate peptide (Homo sapiens, UniProt Q02156).
T2 construct: made in house
T2 sequence (Q02156 1-737): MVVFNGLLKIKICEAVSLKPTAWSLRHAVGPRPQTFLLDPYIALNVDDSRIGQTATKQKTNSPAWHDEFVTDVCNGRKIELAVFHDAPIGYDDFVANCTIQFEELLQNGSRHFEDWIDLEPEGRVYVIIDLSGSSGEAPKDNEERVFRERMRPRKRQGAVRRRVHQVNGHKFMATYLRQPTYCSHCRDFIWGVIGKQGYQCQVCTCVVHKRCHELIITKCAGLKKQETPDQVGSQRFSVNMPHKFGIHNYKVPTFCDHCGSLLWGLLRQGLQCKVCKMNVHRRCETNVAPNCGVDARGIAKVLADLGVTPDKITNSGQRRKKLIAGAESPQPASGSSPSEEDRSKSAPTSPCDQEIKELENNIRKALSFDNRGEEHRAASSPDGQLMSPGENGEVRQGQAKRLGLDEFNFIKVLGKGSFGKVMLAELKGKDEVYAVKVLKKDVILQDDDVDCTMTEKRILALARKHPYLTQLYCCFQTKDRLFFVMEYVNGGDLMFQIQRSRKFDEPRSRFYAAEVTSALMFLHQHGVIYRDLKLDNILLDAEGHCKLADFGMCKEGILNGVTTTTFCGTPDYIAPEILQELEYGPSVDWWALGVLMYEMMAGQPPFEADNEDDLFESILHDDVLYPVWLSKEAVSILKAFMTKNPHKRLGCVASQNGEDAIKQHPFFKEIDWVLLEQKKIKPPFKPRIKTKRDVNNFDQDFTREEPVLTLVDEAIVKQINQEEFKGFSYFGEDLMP
The experiment in a line: PKC activity assay, phospholipid dependence. In kind it is biochemical. From the text:
The purpose of this protocol is to provide the reader with the conditions that we use to determine the activity and phospholipid dependence of Protein Kinase C ε. This protein is purified to near homogeneity and may behave differently from crude preparations. The calculated molecular weight of the protein is 83.5 kDa. Apparent molecular weights of 89-96 kDa have been reported in the literature, and the protein may run as a doublet (1). […] With the assay described in this protocol, we typically see a two-fold phosphatidylserine stimulation of activity. There are many factors that can affect the phospholipid dependence of this enzyme and it will display different degrees of dependency for different substrates. The quality of the lipids used is very important and can affect the lipid dependency dramatically. The reaction conditions given in this protocol and the enzyme concentration ranges used give linear reaction kinetics over at least ten minutes.
[…] of Phosphatidylserine (1.2 μl of 10 mg/ml PS Stock) and […] of diacylglycerol (0.6 μl of 2 mg/ml DAG Stock) are needed per reaction. Determine the total amount of each needed for the number of reactions one is running and make up 10% more lipid mix than required to account for pipetting loss.
Using a Hamilton syringe (remember to clean out with methanol), transfer the required volume of each lipid stock to a 12×75 mm glass test tube. Thoroughly dry down the chloroform with a nitrogen stream and gentle rotation of the tube. Resuspend the dried mixture with 10 μl buffer per reaction. Resuspension buffer is 10 mM HEPES, pH 7.4/0.3% Triton X-100. Vortex into solution/suspension. This will take at least two minutes of vortexing. Place the lipid mix in a 40° C. water bath for 5 minutes prior to adding to the reaction mix.
1). Make up the reaction mix. All assays should be done in triplicate. Two blanks (reaction mix with no enzyme added) should be included and one tube for determining the total cpm's in a reaction.
2). Dispense 60 μl of mix into each tube and place tubes at 30° C.
3). Dilute the protein to be assayed to between 20 and 50 ng/μl.
4). Add 2 μl of diluted enzyme to each tube at 20 second intervals. Blanks have no enzyme added.
5). Stop reactions at 10 minutes by adding 6 μl 5% phosphoric acid.
6). Incubate on ice for 5 minutes.
7). Spot 5 μl of reaction mix on to two phosphocellulose membranes. These are the “Totals”.
8). Transfer 55 μl from each tube to phosphocellulose membranes. Allow to dry. Wash the membranes three times with 5 ml 0.5% phosphoric acid per filter in a 400 ml beaker.
9). Transfer membranes to scintillation vials and count (drying is not necessary). […]

4 molecules from US20010004522A1, “KINASE ACTIVITY MEASUREMENT USING FLUORESCENCE POLARIZATION” (priority 1997, published 2001) can be followed below.

EGF receptor, sequence (P00533 25-1210): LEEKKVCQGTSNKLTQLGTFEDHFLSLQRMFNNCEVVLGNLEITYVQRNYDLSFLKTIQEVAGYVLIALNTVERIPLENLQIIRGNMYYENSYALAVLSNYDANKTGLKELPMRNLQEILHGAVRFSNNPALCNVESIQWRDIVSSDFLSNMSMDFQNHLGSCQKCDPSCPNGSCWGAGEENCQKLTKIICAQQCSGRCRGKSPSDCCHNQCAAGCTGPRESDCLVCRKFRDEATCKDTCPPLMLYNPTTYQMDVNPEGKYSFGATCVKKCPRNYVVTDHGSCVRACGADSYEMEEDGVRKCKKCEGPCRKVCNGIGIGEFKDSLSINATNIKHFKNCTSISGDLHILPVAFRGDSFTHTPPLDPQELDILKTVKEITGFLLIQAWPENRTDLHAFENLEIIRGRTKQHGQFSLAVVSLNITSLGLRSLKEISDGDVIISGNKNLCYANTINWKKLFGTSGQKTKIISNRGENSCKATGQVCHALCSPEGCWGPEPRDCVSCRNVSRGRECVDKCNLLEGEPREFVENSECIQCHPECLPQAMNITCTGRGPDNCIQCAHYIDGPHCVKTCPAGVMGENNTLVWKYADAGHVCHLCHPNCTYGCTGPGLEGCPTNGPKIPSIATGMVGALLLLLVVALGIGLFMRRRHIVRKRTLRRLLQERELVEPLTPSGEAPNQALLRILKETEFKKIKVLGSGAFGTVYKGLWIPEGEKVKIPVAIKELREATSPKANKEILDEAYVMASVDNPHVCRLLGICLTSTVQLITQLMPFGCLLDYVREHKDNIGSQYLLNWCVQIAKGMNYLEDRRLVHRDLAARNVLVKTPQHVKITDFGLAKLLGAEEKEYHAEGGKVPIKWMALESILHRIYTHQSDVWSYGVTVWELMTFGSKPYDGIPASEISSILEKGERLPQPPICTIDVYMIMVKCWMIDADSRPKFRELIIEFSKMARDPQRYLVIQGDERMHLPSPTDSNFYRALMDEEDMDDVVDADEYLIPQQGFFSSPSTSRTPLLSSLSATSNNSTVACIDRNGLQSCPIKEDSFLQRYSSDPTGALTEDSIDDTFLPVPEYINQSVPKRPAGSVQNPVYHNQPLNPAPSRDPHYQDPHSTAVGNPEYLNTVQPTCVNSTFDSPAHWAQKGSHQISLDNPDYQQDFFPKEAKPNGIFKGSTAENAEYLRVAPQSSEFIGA

Regarding `O=C(O)CN(CCN(CC(=O)O)CC(=O)O)CC(=O)O` [EDTA], the “EGF receptor kinase activity” value at EGF receptor was “inhibits”. `[Na+].[Na+].[Na+].[O]=[V]([O-])([O-])[O-]` [vanadate, Na3VO4]: the “polarization value (phosphatase activity)” value in series [1] was “remained constant”.

B1: PKC epsilon: PKC isozyme tested for phosphorylation of GFAP peptide (protein, UniProt Q02156 1-737, looked up)
Protein kinase C epsilon type: T2 sequence (Q02156 1-737)
Consider B1, for which the “substrate phosphorylated (radioactive data for FIG. 6)” value with GFAP peptide worked out at 1.47%.

B2: PKC ε lot #6747: Protein Kinase C ε purified to near homogeneity, current lot of the enzyme (protein, UniProt Q02156 1-737, looked up)
Protein kinase C epsilon type: T2 sequence (Q02156 1-737)
Regarding B2, in series [2] (No Lipid Activators), the “% Activity” value came to 59% and the “Specific Activity” value is reported as 743. Also, in series [2] (PS/DAG), the “% Activity” value is 100% and the “Specific Activity” value stood at 1250.
